In the supplement of paper PMC5998384:

Assays:
HeLa Kyoto [1] = experiment: solubility in G1/S (NP-40 vs SDS abundance) (log2 ratio); higher = more soluble; settings: cell cycle stage: G1/S
HeLa Kyoto [2] = experiment: melting temperature (median over replicates), in situ; higher = more thermally stable
HeLa Kyoto [3] = experiment: solubility change mitosis vs G1/S (difference of NP-40 vs SDS log2 ratios) (log2 ratio difference); higher = more soluble in mitosis
HeLa Kyoto [4] = experiment: thermal stability score vs G1/S (z-score of summed log2 fold changes over temperatures); higher = more thermally stable than in G1/S
[5] = cell cycle stage: early G1 (4.5 h after nocodazole release)
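Throughout, for melting temperature (median over replicates), in situ: HeLa Kyoto cells synchronized by double thymidine or nocodazole block, proteins quantified by TMT10plex mass spectrometry, three independent biological replicates.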
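Throughout, for solubility change mitosis vs G1/S (difference of NP-40 vs SDS log2 ratios): synchronized HeLa Kyoto cells (double thymidine block for G1/S, nocodazole release for mitosis), protein amounts in NP-40 versus SDS lysates quantified by mass spectrometry, three biological replicates.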
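Throughout, for solubility in G1/S (NP-40 vs SDS abundance): HeLa Kyoto cells arrested at G1/S by double thymidine block, proteins quantified by TMT10plex mass spectrometry in mild NP-40 versus SDS extracts, three biological replicates.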
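Throughout, for thermal stability score vs G1/S (z-score of summed log2 fold changes over temperatures): synchronized HeLa Kyoto cells, proteins quantified by TMT10plex mass spectrometry, three biological replicates, mitosis taken 0.5 h after nocodazole release, G1/S directly after double thymidine block.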

Chain of APTX (chain, as listed by the source): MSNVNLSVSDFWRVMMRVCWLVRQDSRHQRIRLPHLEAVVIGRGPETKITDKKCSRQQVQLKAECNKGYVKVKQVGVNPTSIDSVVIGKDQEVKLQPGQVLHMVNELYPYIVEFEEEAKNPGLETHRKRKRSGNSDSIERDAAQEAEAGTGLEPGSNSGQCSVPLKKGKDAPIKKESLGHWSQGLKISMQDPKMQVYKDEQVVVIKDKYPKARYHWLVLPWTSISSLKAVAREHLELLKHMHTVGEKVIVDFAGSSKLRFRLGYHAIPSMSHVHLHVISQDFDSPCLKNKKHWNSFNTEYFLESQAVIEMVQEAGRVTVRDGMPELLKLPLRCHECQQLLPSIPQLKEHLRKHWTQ

Substance	solubility in G1/S (log2) (HeLa Kyoto [1])	melting temperature (HeLa Kyoto [2]; cell cycle stage: G1/S)	melting temperature (HeLa Kyoto [2]; cell cycle stage: mitosis)	solubility change mitosis (log2) (HeLa Kyoto [3])	thermal stability score (HeLa Kyoto [4]; [5])	thermal stability score (HeLa Kyoto [4]; cell cycle stage: mitosis)
MTTEKSLVTEAENSQHQQKEEGEEAINSGQQEPQQEESCQTAAEGDNWCEQKLKASNGDTPTHEDLTKNKERTSESRGLSRLFSSFLKRPKSQVSEEEGKEVESDKEKGEGGQKEIEFGTSLDEEIILKAPIAAPEPELKTDPSLDLHSLSSAETQPAQEELREDPDFEIKEGEGLEECSKIEVKEESPQSKAETELKASQKPIRKHRNMHCKVSLLDDTVYECVVEKHAKGQDLLKRVCEHLNLLEEDYFGLAIWDNATSKTWLDSAKEIKKQVRGVPWNFTFNVKFYPPDPAQLTEDITRYYLCLQLRQDIVAGRLPCSFATLALLGSYTIQSELGDYDPELHGVDYVSDFKLAPNQTKELEEKVMELHKSYRSMTPAQADLEFLENAKKLSMYGVDLHKAKDLEGVDIILGVCSSGLLVYKDKLRINRFPWPKVLKISYKRSSFFIKIRPGEQEQYESTIGFKLPSYRAAKKLWKVCVEHHTFFRLTSTDTIPKSKFLALGSKFRYSGRTQAQTRQASALIDRPAPHFERTASKRASRSLDGAAAVDSADRSPRPTSAPAITQGQVAEGGVLDASAKKTVVPKAQKETVKAEVKKEDEPPEQAEPEPTEAWKVEKTHIEVTVPTSNGDQTQKLAEKTEDLIRMRKKKRERLDGENIYIRHSNLMLEDLDKSQEEIKKHHASISELKKNFMESVPEPRPSEWDKRLSTHSPFRTLNINGQIPTGEGPPLVKTQTVTISDNANAVKSEIPTKDVPIVHTETKTITYEAAQTDDNSGDLDPGVLLTAQTITSETPSSTTTTQITKTVKGGISETRIEKRIVITGDADIDHDQVLVQAIKEAKEQHPDMSVTKVVVHQETEIADE [EPB41]	-0.0892	51.6 °C	51.6 °C	-0.0541	-0.449	-0.552
MSKPPPKPVKPGQVKVFRALYTFEPRTPDELYFEEGDIIYITDMSDTNWWKGTSKGRTGLIPSNYVAEQAESIDNPLHEAAKRGNLSWLRECLDNRVGVNGLDKAGSTALYWACHGGHKDIVEMLFTQPNIELNQQNKLGDTALHAAAWKGYADIVQLLLAKGARTDLRNIEKKLAFDMATNAACASLLKKKQGTDAVRTLSNAEDYLDDEDSD [OSTF1]	0.545	49.3 °C	50.7 °C	-0.158	-0.239	0.339
MLSLDFLDDVRRMNKRQLYYQVLNFGMIVSSALMIWKGLMVITGSESPIVVVLSGSMEPAFHRGDLLFLTNRVEDPIRVGEIVVFRIEGREIPIVHRVLKIHEKQNGHIKFLTKGDNNAVDDRGLYKQGQHWLEKKDVVGRARGFVPYIGIVTILMNDYPKFKYAVLFLLGLFVLVHRE [SEC11A]	-0.21	53.2 °C	52.3 °C	-0.117	9.24	7.47
MDMGNQHPSISRLQEIQKEVKSVEQQVIGFSGLSDDKNYKKLERILTKQLFEIDSVDTEGKGDIQQARKRAAQETERLLKELEQNANHPHRIEIQNIFEEAQSLVREKIVPFYNGGNCVTDEFEEGIQDIILRLTHVKTGGKISLRKARYHTLTKICAVQEIIEDCMKKQPSLPLSEDAHPSVAKINFVMCEVNKARGVLIALLMGVNNNETCRHLSCVLSGLIADLDALDVCGRTEIRNYRREVVEDINKLLKYLDLEEEADTTKAFDLRQNHSILKIEKVLKRMREIKNELLQAQNPSELYLSSKTELQGLIGQLDEVSLEKNPCIREARRRAVIEVQTLITYIDLKEALEKRKLFACEEHPSHKAVWNVLGNLSEIQGEVLSFDGNRTDKNYIRLEELLTKQLLALDAVDPQGEEKCKAARKQAVRLAQNILSYLDLKSDEWEY [BAG5]	0.621	49.6 °C	50.4 °C	-0.166	1.27	1.14
APTX	-0.219	48.5 °C	50.7 °C	0.0501	0.58	1.59
MADKEAGGSDGPRETAPTSAYSSPARSLGDTGITPLSPSHIVNDTDSNVSEQQSFLVVVAVDFGTTSSGYAYSFTKEPECIHVMRRWEGGDPGVSNQKTPTTILLTPERKFHSFGYAARDFYHDLDPNEAKQWLYLEKFKMKLHTTGDLTMDTDLTAANGKKVKALEIFAYALQYFKEQALKELSDQAGSEFENSDVRWVITVPAIWKQPAKQFMRQAAYQAGLASPENSEQLIIALEPEAASIYCRKLRLHQMIELSSKAAVNGYSGSDTVGAGFTQAKEHIRRNRQSRTFLVENVIGEIWSELEEGDKYVVVDSGGGTVDLTVHQIRLPEGHLKELYKATGGPYGSLGVDYEFEKLLYKIFGEDFIEQFKIKRPAAWVDLMIAFESRKRAAAPDRTNPLNITLPFSFIDYYKKFRGHSVEHALRKSNVDFVKWSSQGMLRMSPDAMNALFKPTIDSIIEHLRDLFQKPEVSTVKFLFLVGGFAEAPLLQQAVQAAFGDQCRIIIPQDVGLTILKGAVLFGLDPAVIKVRRSPLTYGVGVLNRYVEGKHPPEKLLVKDGTRWCTDVFDKFISADQSVALGELVKRSYTPAKPSQLVIVINIYSSEHDNVSFITDPGVKKCGTLRLDLTGTSGTAVPARREIQTLMQFGDTEIKATAIDIATSKSVKVGIDFLNY [HSPA12A]	-0.123	52.1 °C	52.7 °C	-0.113	0.628	1
